Data reported in publication PMC3287209 (Nucleic Acids Research, 2012).

What was measured:
[1] = target: the molecule itself; experiment: crystal structure
[2] = target: XLF wild-type (human, UniProt Q9H9Q4 1-299); experiment: native gel or EMSA

Binder | stoichiometry N [1] | binding result [2]
XLF^1–224 (domain or fragment) MEELEQGLLMQPWAWLQLAENSLLAKVFITKQGYALLVSDLQQVWHEQVDTSVVSQRAKELNKRLTAPPAAFLCHLDNLLRPLLKDAAHPSEATFSCDCVADALILRVRSELSGLPFYWNFHCMLASPSLVSQHLIRPLMGMSLALQCQVRELATLLHMKDLEIQDYQESGATLIRDRLKTEPFEENSFLEQFMIEKLPEACSIGDGKPFVMNLQDLYMAVTTQ | 2 | –
XRCC4^1–157 (domain or fragment) MERKISRIHLVSEPSITHFLQVSWEKTLESGFVITLTDGHSAWTGTVSESEISQEADDMAMEKGKYVGELRKALLSGAGPADVYTFNFSKESCYFFFEKNLKDVSFRLGSFNLEKVENPAEVIRELICYCLDTIAENQAKNEHLQKENERLLRDWND | – | binds
